“Also recorded” adds a separate entry of the source. Peptide text beside a SMILES is read from it.
Assays:
SK-MES-1 tumors = assay: Biodistribution in SK-MES-1 xenografted nude mice; assay type: in vivo, female C57 nu/nu mice; conditions: SK-MES-1 xenograft nude mice, n=4; for Intestine uptake (with contents): mean ± SD
Description: The tumor biodistribution and targeting properties of the radiolabeled peptides were carried out in female C57 nu/nu mice bearing SK-MES-1 (Pasture Institute, North Branch and Amol, Iran). The tumor was grafted by subcutaneous injection of SK-MES-1 cells at a concentration of 4×10^6 cells/mouse into the right front flank of the mice and left to grow over a period of 20 days. The mice were ready for biodistribution when tumor size reached 0.7–1 cm^3 in mean diameter, all mice received intravenous co-injections of (^99mTc) Tc-HYNIC-(Ser)3-J18 peptide 1 or (^99mTc )Tc-HYNIC-(Ser)3-J18 peptide 2 (1 μg in 100 μl buffer) after 1, 2, and 4 hr post-injection, respectively (n=4 mice per group). In order to measure the radiopeptides’ nonspecific uptake of the radiopeptides, one group of four animals was injected with 300 μg of non-labeled peptide in a 50 μl buffer. The mice in the blocking group were euthanized 2 hr after the injection. Mice organ and tissue samples were collected, and radioactivity uptake was calculated as a percentage of the administered dose per gram tissue (%ID/g).

SK-MES-1 cells = assay: Specific binding (blocking with unlabeled peptide) on SK-MES-1 cells; parameters: species or system human
Description: The in vitro receptor binding of the^ 99mTc-labeled peptide was evaluated using SK-MES-1 a human lung squamous cell carcinoma, SKOV-3 human ovarian carcinoma, and A-549 human lung adenocarcinoma epithelial and MCF-7 human breast cancer cell lines. All cell lines were kept at 37 °C in a 5% CO2 incubator and were maintained in Dulbecco’s DMEM-high glucose supplemented with 10% FBS. Cells were plated in 24-well plates at a density of 4×10^5 cells/well in 1 ml of complete medium and incubated for 24 hr to allow in cells to settle. Following a wash with cold serum-free media or PBS, 40 nM radiolabeled peptides in the full medium were given to the cells, which were then incubated at 37 °C for 2 hr. Finally, cells in culture plates were trypsinized and released, and radioactivity in the cells was measured. To determine specific versus nonspecific binding, SK-MES-1 cells were seeded into 12-well plates at a density of 5×10^5 cells/well and incubated with unlabeled peptides at a concentration 500-fold higher than the labeled peptide for 20 min at 37 °C, followed by the addition of the radiolabeled peptide to the wells. These cells were incubated for 2 hr at 37 °C in a humidified incubator.

Structure (SMILES): CC(C)C[C@H](NC(=O)[C@H](CO)NC(=O)[C@H](CCCNC(=N)N)NC(=O)[C@H](CO)NC(=O)[C@H](CO)NC(=O)[C@H](CO)NC(=O)c1ccc(NN)nc1)C(=O)N[C@@H](Cc1c[nH]c2ccccc12)C(=O)N[C@@H](CO)C(=O)N[C@@H](CC(=O)O)C(=O)N[C@@H](Cc1ccccc1)C(=O)N[C@@H](Cc1ccc(O)cc1)C(=O)N[C@@H](C)C(=O)N[C@@H](CO)C(=O)N[C@@H](C)C(=O)N[C@@H](CO)C(=O)N[C@@H](CCCNC(=N)N)C(=O)NCC(=O)N1CCC[C@H]1C(=O)O [Peptide 1, (^99mTc)Tc-HYNIC-(Ser)3-J18 with tricine, metal not drawn] (HELM PEPTIDE1{[NNc1ccc(C(=O)[*:2])cn1].S.S.S.R.S.L.W.S.D.F.Y.A.S.A.S.R.G.P}$$$$V2.0; C-terminus assumed)
- Intestine uptake (with contents) (SK-MES-1 tumors; 1 hr, i.v. 1 μg in 100 μl): 0.73±0.06 percentage of injected dose per whole sample
- Tumor/muscle ratio (SK-MES-1 tumors; 1 hr, listed as 99mTc-peptide 1): 5.1
- Intestine uptake (with contents) (SK-MES-1 tumors; 2h-blocked (300 μg non-labeled peptide 0.5 hr before), i.v. 1 μg): 0.24 ±0.09 percentage of injected dose per whole sample
- Intestine uptake (with contents) (SK-MES-1 tumors; 2 hr, i.v. 1 μg in 100 μl): 0.59±0.02 percentage of injected dose per whole sample
- Intestine uptake (with contents) (SK-MES-1 tumors; 4 hr, i.v. 1 μg in 100 μl): 0.04±0.01 percentage of injected dose per whole sample
- reduction of binding by pre-saturation with unlabeled J18 peptide (SK-MES-1 cells; 500-fold unlabeled peptide 20 min at 37 °C, then radiolabeled peptide 2 hr at 37 °C, listed as 99mTc-peptide 1): ~11.5 fold
- specific binding (SK-MES-1 cells; abstract, listed as 99mTc-peptide 1): 11.5 fold
- specific binding to SK-MES-1, in words (SK-MES-1 cells; listed as 99mTc-J18 peptide with tricine co-ligand): higher specific binding to SK-MES-1 in comparison with tricine/EDDA coligand
- specific binding to SK-MES-1, in words (SK-MES-1 cells; listed as 99mTc-peptide 1): high specific binding; also recorded: high specificity

Source: article PMC8751750, “Effect of using different co-ligands during ^99mTc-labeling of J18 peptide on SK-MES-1 cell binding and tumor targeting” (Iranian Journal of Basic Medical Sciences, 2021)
